# Patent US20210308260A1
# Target: OVA-specific T-cell antigen receptor of OT1 transgenic mice (mouse)
# Experiment: flow cytometry, OVA tetramer staining of peripheral blood CD8+ T cells of OT1 mice
substance,measurement,value
OVA tetramer (peptide-MHC),proportion of CD8+ T cells specifically recognized by OVA (tetramer-positive),95.3%
